From the supplement of paper PMC12764529
± gives the half width of the 95% confidence interval.

Experiments:
[1] = folding stability dG unfold from trypsin proteolysis; higher = more stable
Procedure, shortened: (§1)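 How resistant each design was to proteolysis was captured as K50, inferred by Bayesian fitting of sequencing counts. Unfolding free energy was then derived relative to a sequence-predicted unfolded-state K50 and a shared folded-state K50, per protease or combined. Digestion used trypsin and chymotrypsin at 11 threefold-diluted concentrations plus a no-protease condition, on mini-proteins under 80 residues without cysteine in a PA-tagged cDNA display construct. Designs were kept only when AlphaFold2 dimer inter-PAE was above 15.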

[2] = folding stability dG unfold from chymotrypsin proteolysis; higher = more stable
Procedure, shortened: as §1

[3] = folding stability dG unfold (combined trypsin and chymotrypsin); higher = more stable
Procedure, shortened: as §1

Sequence | folding stability dG unfold [1] [kcal/mol] | folding stability dG unfold [2] [kcal/mol] | folding stability dG unfold [3] [kcal/mol]
SAGGEFEVYRVKSPDSVVTVTVLPDRVVVNLTDEKNPKVVPIPYPPGHPPTLEDVLALLKSLGFKVEPSAGG [r13_687_TrMRF] | 1.85 ± 0.033 | 1.65 ± 0.043 | 1.79 ± 0.041
SAGGEFLEKVIEAAIEAAKAGPDAKLELTIPVPGGPVKVTIEVGEDGKVKVTIYKGDKKILEIELPLSAGGS [r16_611_TrMRF] | 3.85 ± 0.35 | 4.62 ± 0.34 | > 6
SAGGEFRITFMVPADPNDPAVELAKWIADEFMPPGWKVEVDIKVVPSPDGYYMIDIPVEIMPPGQPISAGGS [r16_128_TrROS] | 1.71 ± 0.14 | 2.81 ± 0.047 | 2.49 ± 0.18
SAGGEIAKRFAKYARDAGYDVRVDVEIIPPDEFPGLKPGKPYVIKVEIEVTPPNGPRRPLGEFTIMINSAGG [r13_874_TrROS] | 2.13 ± 0.06 | 3.18 ± 0.046 | 2.82 ± 0.08
SAGGEIEILLEDGTLLRIRVELDEDGNLRVTVELFRLEPPPAPEVVVERREEREERRVLFADSAEDLSAGGS [r16_802_TrROS_Hall] | 0.941 ± 0.06 | 2.27 ± 0.1 | 1.75 ± 0.15
SAGGEIPPNAKIDELEISPGSGYIRIKVEFYDPDGKPIWKMTITIPIKPVPRPSPEDQKEQNKKNKKSAGGS [r16_697_TrROS] | 1.36 ± 0.18 | 2.68 ± 0.12 | 2.39 ± 0.67
SAGGEKDLYLVKYRVEIKNDKGEKKEFPVTAIATSLEELEETLKALTPKNAEAKVEILEVKPLKEVLSSAGG [r13_513_TrMRF] | 1.86 ± 0.091 | 1.55 ± 0.038 | 1.72 ± 0.1
SAGGEKVKLRIYVYRRTVERDPATGELRERYELVEEIEIEVEPGETLEDILAKLKLPPGWRIVRVERESAGG [r13_716_TrROS_Hall] | 4.39 ± 0.091 | 5.424 ± 0.053 | 5.24 ± 0.076
SAGGEKVKRVLVRDKKTKEWREVEVKEAKVEPPPVITIKIELSEEEAKKLAELLRKLFPDAKVTVVKSAGGS [r8_437_TrROS_Hall] | 4.15 ± 0.35 | 3.82 ± 0.24 | 3.98 ± 0.31
SAGGEMELTLTVTIKVENLTKEQIEEELRKLLEELGFEIEEITVEYDEENKTITVTVRIRLPPLEDLSAGGS [r16_287_TrROS_Hall] | 3.15 ± 0.27 | 2.98 ± 0.23 | 3.15 ± 0.25
SAGGEMVEIVVKFKTKEELEAAIRAALPPGATVEVTVEEKDGELYLTITVPKENAERLREALKKALESAGGS [r16_43_TrROS_Hall] | 4.2 ± 0.28 | 4.48 ± 0.13 | 4.57 ± 0.28
SAGGENYTFEMEITIPIPLPNPNGKLKKLPIKVPIEYEYDDPAQRNQAMQNMIMRIIDLALKELGVPSAGGS [r16_339_TrROS] | 1.46 ± 0.048 | 2.12 ± 0.04 | 1.9 ± 0.16
SAGGESYPFIGRNPETNALIEVTVTKLESGEYLVNATITNPNGETVEFPFTFPANSLTPESEIDVTITSAGG [r13_959_TrMRF] | 1.65 ± 0.051 | 1.21 ± 0.074 | 1.44 ± 0.054
SAGGETKTFTIDEIRAKLKEALDNGIDEVRITVFRDGKEEEITIPASKLDEIIASLPPDATVRIERVSAGGS [r16_636_TrROS_Hall] | 2.02 ± 0.042 | 1.86 ± 0.11 | 1.97 ± 0.13
SAGGETVTTESYQPLPTGPGLSFKNVVTTEEDVNNPGVKYTTTEVTAELVNPEGDESTTTTSTVTAASAGGS [r16_217_JUSTAS] | 0.0281 ± 0.035 | 0.00547 ± 0.22 | 0.112 ± 0.14
SAGGEVKYEHEGKNPDNGNMYKQEQEVPPVPIPPVIVIPAEDLDEFRELGIPENFKILPGNGWIVITSAGGS [r16_194_TrROS] | 0.44 ± 0.091 | 0.154 ± 0.25 | 0.425 ± 0.13
SAGGEVRLRLEAELLPDGTLVLRGRVEVRVGDRVFEFEFELVLRLEPVPPPPAPARPLLIPERLLDASAGGS [r8_269_TrMRF] | 1.47 ± 0.098 | 2.4 ± 0.065 | 2.13 ± 0.12
SAGGEWHEISIKFPNPEEIEEALREAFPPGMDVDPDVEPNPNGWEVEIEVPRNNPDRVQNAIKEALDSAGGS [r16_43_TrROS] | 0.452 ± 0.035 | 0.469 ± 0.031 | 0.492 ± 0.11

Sequence | folding stability dG unfold [1] [kcal/mol] | folding stability dG unfold [2] [kcal/mol] | folding stability dG unfold [3] [kcal/mol]
SAGGEWRKITVPIKYRFPPGESIDSIANELANLPGLKVEVNVEYEKDPDGRYYMEIPVEIEIPPGAPISAGG [r13_590_TrROS] | 0.341 ± 0.074 | 0.669 ± 0.16 | 0.576 ± 0.12
SAGGFEEKVKAGEEVVDVVAPITLPDGTEAVVTRVEPVDDGLLVTLRPPWTGEEVELPLPASEIPKLPSAGG [r13_340_JUSTAS] | 1.1 ± 0.057 | 1.21 ± 0.056 | 1.11 ± 0.077
SAGGFEFKAVKLKKNEEKEGELGGAKVRYVSDNKGPVYQVVEFGPEYRALAKVEGDKVELVAVEEGNPSAGG [r13_92_TrMRF] | -1.02 ± 0.66 | 0.00343 ± 0.21 | -0.21 ± 0.16
SAGGFGIKIDEFDPDGEFRISIYDPDTWQPIAEFRIKIKPVPPPPPVEKRPYKDDDGEPKTVTHPDDQSAGG [r13_9_TrROS] | 0.542 ± 0.12 | 1.73 ± 0.19 | 1.43 ± 0.2
SAGGFIRIETPNGKKISPEVREEAEEAIRDGDWDDAVKKISDWLRERFGHPMPIKIEVMMPPPKPPKSAGGS [r8_48_TrROS] | 0.547 ± 0.061 | 1.19 ± 0.11 | 0.995 ± 0.18
SAGGFKIEIEKNPEPDGIVIVIEYDMPPKGIKDFIEELFGPNPKDVTTEEHPNGRTEVTFRIPPGAPSAGGS [r16_605_TrROS] | -0.426 ± 0.43 | 0.33 ± 0.34 | 0.268 ± 0.3
SAGGFTIEFPLPPGESPDEIKDEIMDMVRPIADEHGFKNVKIPITNVRWQPPGRRRFTINIEIKFPGSAGGS [r8_184_TrROS] | 0.723 ± 0.16 | 0.465 ± 0.24 | 0.727 ± 0.22
SAGGGADVISAYDPETVEELSKLPWVTSVTYDPETGRYDIRFERPDGQYNYVVDNVTKEVLEVSPVDSAGGS [r8_251_TrMRF] | 1.03 ± 0.07 | 1.29 ± 0.053 | 1.3 ± 0.1
SAGGGALVLPDPDVPDDLPLVVVDPENGTVTLLHFDRETGRVRARVVRLGDGVPEEEEAVFPVAPDALSAGG [r13_851_TrMRF] | 0.242 ± 0.11 | -0.261 ± 0.18 | 0.078 ± 0.11
SAGGGDLEVELVEEREFTFPDGLRRRLLVVRFPDGFLAIPVYVRPPGGGWRLLARFVLRIGPPRPEEGSAGG [r13_494_TrMRF] | 3.22 ± 0.054 | 4.29 ± 0.043 | 3.82 ± 0.08
SAGGGDWYKVTVKVDGNPEVAEALVEKLLEEVGEEVVFEPRPGEQTVTFYVPKELLPLLEELGIEVEPSAGG [r13_156_TrMRF] | 2.24 ± 0.11 | 2.632 ± 0.02 | 2.56 ± 0.13
SAGGGEKWKIKFKDAEAYINAPEGKVEIVPPDGSKITIDFPPDIPPEVVAKLLAEELGFDEAEIEPVESAGG [r13_852_TrMRF] | -0.263 ± 0.085 | 0.357 ± 0.13 | 0.168 ± 0.14
SAGGGEYYAIVRIEVKDPESEETSELELVIPVEGLSEEEALEIARAIAETFPKENVKAEVEIVPRELSAGGS [r16_774_TrMRF] | 1.05 ± 0.043 | 0.896 ± 0.16 | 0.936 ± 0.11
SAGGGFDPSKLKKEKTLTLTLPGNSETFTIELYLPEDGESTVVFSYNDKNYELTITKDSITLKPVSSSAGGS [r16_711_JUSTAS] | 2.38 ± 0.13 | 3.01 ± 0.045 | 2.79 ± 0.2
SAGGGIVIPVPAETARELLEKLAPDGADVTVESLGSLGGGEVYRATFTDPVFGNTVDIEVLVGPEGGSAGGS [r16_486_TrMRF] | 0.392 ± 0.028 | 0.301 ± 0.13 | 0.437 ± 0.096
SAGGGLANLSLEEIRQLLLEKFPELPVEVKVTPVDEKDGVVLVTVRPPLPDGSTVESEEELPLEPGLSAGGS [r16_564_JUSTAS] | 0.661 ± 0.025 | -1.28 ± 0.41 | 0.229 ± 0.074
SAGGGLEEFARRLAEELARLLGGPNVPFELEGVVVFGFRLRPDGTPEPTTSRPVVVRVRFETPGGDPSAGGS [r16_156_TrMRF] | 2.7 ± 0.11 | 4.09 ± 0.044 | 3.58 ± 0.1
SAGGGLPASDPDVTATTETFTVTYTEATPEGNPVTTTTTTTVTTYTAPDGAVTTTTTTTSTTVTPASTSAGG [r13_51_JUSTAS] | 1.7 ± 0.062 | 1.77 ± 0.023 | 1.76 ± 0.038
